In publication doi:10.1101/2019.12.11.872267 (bioRxiv, 2019):

Biological target: the molecule itself
Assay: negative stain electron microscopy

B1: Drosophila P5CS, purified from E. coli (enzyme, UniProt Q9VNW6 1-776, looked up)
chain: MLQNSFKLAQSLRNGFYRNAWRAFSSHGPRQPLVSPERRLEKAHPTFTERSQLKYARRLVVKLGSAVITREDNHGLALGRLASIVEQVAECHLEGREVMMVTSGAVAFGKQKLAQELLMSLSMRETLNPKDSKEFDGATLEPRAAAAVGQSGLMSLYDAMFAQYGVKIAQVLVTKPDFYNEETRNNLFCTLSELISLNIVPIINTNDAVSPPMFIRDDEPAGGARRGIPIKDNDSLSAMLAAEVQADLLILMSDVDGIYNKPPWEDGAKLMHTYTSDDSNSIEFGKKSKVGTGGMDSKVKAATWALDRGVSVVICNGMQEKAIKTIIGGRKVGTFFTEATESANAVPVEVMAENARTGSRQMQALTPAQRASAVNTLADLLVSREKFILDANAKDLAEAQKSGLAKPLLSRLSLNPAKLKNLSVGLKQIAEDSHKNVGRVLRRTRLADQLELKQVTVPIGVLLVIFESRPDSLPQVAALAMASANGLLLKGGKEAAHSNKALMELVKEALATVGAEHAVSLVSTREEISDLLSMENHIDLIIPRGSSDLVRSIQQQSLHIPVLGHAEGVCHVYIDRDADLEKALRIARDAKCDYPAACNAMETLLIHEDLMSGAIFGDVCNMLKREGVKIYAGPRLNQQLTFGPPAAKSLKHEYGALECCIEVVPSLDEAINHIHTYGSSHTDVIVTENDAAARQFLGSVDSACVFHNASSRFADGFRFGLGAEVGISTARIHARGPVGVEGLLTTKWILEGQDHAAADFAEGGGRTWLHETLPLD
**Q.** Does B1 bind?
**A.** binds
